Laboratory results: US10501734B2, “Compositions and methods of use thereof for making polypeptides with many instances of nonstandard amino acids” (Yale University, priority 2014, dated 2019)

What was measured:
TAG codons = test: MRM mass spectrometry quantitation of nsAA incorporation in ELP-GFP; parameters: species or system E. coli; settings: for pAcF (Y) / pAcF: calculated as 100%−Y %−F %; for near cognate suppression and mischarging events of K, P, L/I, and Q: content in proteins produced
Procedure: Purified ELP-GFP protein was dissolved by vortex in protein solubilization buffer (15 mM Tris-HCl, 1.5 mM EDTA, pH=8.5) and the protein concentration was determined by UV280. Solubilization buffer was then added to adjust the concentration of the protein stock solutions to 2.0 μg/μl. For protein digestion, 12.5 μl of this solution (25 μg) was supplemented with 3.125 μl freshly prepared digestion buffer 5×. The composition of the digestion buffer 5× was: 50 mM Tris-HCl pH=8.5, 5 mM EDTA, 50 mM DTT and 2.5% (w/v) freshly prepared acid labile surfactant II (ALS II). Proteins were thermally denatured in a heat block at 95° C. for 5 min and the reaction was then quenched on ice. To alkylate the cysteines, 2.5 μl of 1 M Tris-HCl buffer (pH=8.5) and 5.83 μl freshly prepared 100 mM IAA solution were added. The reaction proceeded for 30 min at room temperature and in the dark. Excess IAA was quenched with 0.875 μl of 200 mM aqueous DTT solution. Next, 1.25 μl LysC enzyme solution, prepared at 7.0×10^−4 activity units/μl in water, were added and protein was digested for 4 h at 37° C. in an incubator without shaking. The digest was supplemented with 157.77 μl 105.6 mM Tris-HCl pH=8.5 buffer containing 5.28 mM CaCl2. For digestion with trypsin, 3.6 μl sequencing grade porcine trypsin (Promega), provided as solution with 0.5 μg/μl trypsin, was added and digestion proceeded for 15 h at 37° C. in an incubator without shaking. The digest was quenched by adding 15.63 μl 20% TFA solution. The pH value of the digest was tested with pH indicator paper to ensure that the pH value was between a value of 1 and 2 to ensure efficient cleavage conditions for ALSII. Detergent was hydrolyzed for 15 min at 23° C. and peptides were desalted using C18 UltraMicroSpin columns (The Nest Group, Southborough, Mass.) following the instructions provided with the columns. Eluted peptides solutions were dried in a vacuum centrifuge which was operated at 45° C. The dried peptides were then dissolved by vortex in 11 μl peptide solvent consisting of 2:3:7 by volume 70% FA, 1-propanol and 0.5% acetic acid. The peptide concentration was determined by UV280 enabling equal loading for LC-MS. Peptide stock solutions were frozen at −80° C. until use. For shotgun proteomic analysis, peptide stock solutions were diluted to a concentration of 60 ng/μl in 3:8 by volume 70% formic acid 0.1 TFA and 5 μl corresponding to 300 ng total peptides were injected for each analysis.
The C-terminally labeled stable isotope labeled peptides (lysine (^13C6^15N2) or arginine (^13C6^15N4)) VPGAGVPGYGVPGVGK, VPGAGVPGFGVPGVGK and FEGDTLVNR were obtained as a lyophilized powder supplied as 1 nmol aliquots. Peptides were dissolved in 30% acetonitrile 0.1% formic acid at a concentration of 20 pmol/μl. Standards were then combined to obtain a master mix with 6.666 pmol/μl of each peptide. Dilution of peptide standards and protein digest for MRM was performed in Agilent polypropylene sample vials with MRM solvent consisting of 100 ng/μl sodium deoxycholate in 3:7 by volume DMSO/0.1% formic acid. Calibration of the instrument was performed with a 11 point calibration curve with 0, 1, 2, 5, 10, 20, 50, 100, 200, 500 and 1000 fmol peptide injected. Peptide stock solutions from the digestion of ELP-GFP were prepared at 5 ng/μl in MRM solvent containing 50 fmol/μl of the stable isotope labeled peptides. MRM solvent blank injections between sample injections and quality control standards analyzed before and after sample injection ensured consistent performance of the MRM platform.
Shotgun discovery data from the analysis of stable isotope labeled peptides and ELP-GFP digests were imported into Skyline^2 software v. 2.5 to extracted suitable transitions for MRM quantitation of peptides. A detailed description of this workflow will be reported somewhere else^3. Briefly, at least 3 transitions were extracted for peptides reporting incorporation of natural and unnatural amino acids at the position of the stop codon. […]

ELP(30TAG)-GFP = test: Intact cell GFP fluorescence, ELP(30TAG)-GFP production; assay type: cell-based, E. coli; settings: plasmid-based OTSs; panel of 14 nsAAs
Procedure: Liquid cell cultures of strains harboring chromosomally integrated OTSs and GFP reporter plasmids were inoculated from frozen stocks and grown to confluence overnight. Cultures were then inoculated at 1:20 dilution in LBmin media supplemented with 30 μg/ml kanamycin. Strains were inoculated by addition of 1:20 confluent cell culture (grown overnight) and allowed to grow at 34° C. to an OD600 of 0.5-0.8 in a shaking plate incubator at 650 r.p.m (˜3 h). AARS expression was then induced by the addition of 0.2% arabinose, GFP expression was induced by the addition of 60 ng/ul anhydrotetracycline, and the appropriate nsAA was added to a concentration of 1 mM. Cells were incubated at 34° C. for an additional 16 h. Liquid cell cultures of strains harboring plasmid-based OTSs and GFP or ELP-GFP reporter plasmids were inoculated from frozen stocks and grown to confluence overnight. Cultures were then inoculated at 1:20 dilution in 2×YT media supplemented with 30 μg/ml kanamycin and 20 μg/ml chloramphenicol. […] Cells were allowed to grow at 34° C. to an OD600 of 0.5-0.8 in a shaking plate incubator at 650 r.p.m (˜3 h), reporter protein expression was then induced by the addition of 60 ng/ul anhydrotetracycline, and cells were incubated at 34° C. for an additional 16 h.
For 384 well plate-based assays, fluorescence and OD600 were directly measured following expression. For 96 well plate-based assays, cells were centrifuged at 4,000 g for 4 min. Supernatant medium was removed and cells were resuspended in PBS. This process was repeated twice with PBS. GFP fluorescence was measured on a Biotek spectrophotometric plate reader using excitation and emission wavelengths of 395 and 509 nm, respectively). Fluorescence signals were normalized by dividing the fluorescence counts by the OD600 reading. The nsAAs used in this study were purchased from Sigma-Aldrich (St. Louis, Mo.), Chemlmpex (Wood Dale, Ill.), and Bachem (Torrance, Calif.). Solutions of nsAAs (50 mM) were made in water or 50 mM NaOH; these stock solutions were diluted 50- or 100-fold (to 1 mM final concentration) into medium used for bacterial growth.

[1] = ELP(10TAG)-GFPMS, nsAA added pAcF
[2] = ELP(30TAG)-GFPMS, nsAA added pAcF
[3] = ELP(10TAG)MS-ELP(20TAG)-GFP, nsAA added pAcF
[4] = ELP(20TAG)-ELP(10TAG)MS-GFP, nsAA added pAcF
[5] = ELP(10TAG)-GFPMS, nsAA added pAzF, N = 3

Row | Molecule | F at TAG position (TAG codons; [1]) [%] | Y at TAG position (TAG codons; [1]) [%] | pAcF (Y) (TAG codons; [1]) [%] | F at TAG position (TAG codons; [2]) [%] | Y at TAG position (TAG codons; [2]) [%] | pAcF (TAG codons; [2]) [%] | near cognate suppression and mischarging events of K, P, L/I, and Q (TAG codons) | nsAA specificity in ELP(30TAG)-GFP production (ELP(30TAG)-GFP) | also measured
1 | pAcFRS.1.t1: pAcFRS variant A167D, R257G, SEQ ID NO: 5 (protein) MDEFEMIKRNTSEIISEEELREVLKKDEKSALIGFEPSGKIHLGHYLQIKKMIDLQNAGFDIIILLADLHAYLNQKGELDEIRKIGDYNKKVFEAMGLKAKYVYGSEFQLDKDYTLNVYRLALKTTLKRARRSMELIAREDENPKVAEVIYPIMQVNGCHYRGVDVDVGGMEQRKIHMLARELLPKKVVCIHNPVLTGLDGEGKMSSSKGNFIAVDDSPEEIRAKIKKAYCPAGVVEGNPIMEIAKYFLEYPLTIKGPEKFGGDLTVNSYEELESLFKNKELHPMRLKNAVAEELIKILEPIRKRL | 0.26 | 2.42 | 97.32 | 0.29 | 1.53 | 98.18 | striking decrease |  | 
2 | pAcFRS.2.t1: pAcFRS variant L65V, A167D, R257G, SEQ ID NO: 8 (protein) MDEFEMIKRNTSEIISEEELREVLKKDEKSALIGFEPSGKIHLGHYLQIKKMIDLQNAGFDIIIVLADLHAYLNQKGELDEIRKIGDYNKKVFEAMGLKAKYVYGSEFQLDKDYTLNVYRLALKTTLKRARRSMELIAREDENPKVAEVIYPIMQVNGCHYRGVDVDVGGMEQRKIHMLARELLPKKVVCIHNPVLTGLDGEGKMSSSKGNFIAVDDSPEEIRAKIKKAYCPAGVVEGNPIMEIAKYFLEYPLTIKGPEKFGGDLTVNSYEELESLFKNKELHPMRLKNAVAEELIKILEPIRKRL |  |  |  |  |  |  |  | for pAcF over pAzF decreases when expressed on a multi-copy plasmid | 
3 | pAzFRS.2.t1: pAcFRS variant E107T, F108Y, Q109M, R257G, SEQ ID NO: 14 (protein) MDEFEMIKRNTSEIISEEELREVLKKDEKSALIGFEPSGKIHLGHYLQIKKMIDLQNAGFDIIILLADLHAYLNQKGELDEIRKIGDYNKKVFEAMGLKAKYVYGSTYMLDKDYTLNVYRLALKTTLKRARRSMELIAREDENPKVAEVIYPIMQVNGCHYRGVDVAVGGMEQRKIHMLARELLPKKVVCIHNPVLTGLDGEGKMSSSKGNFIAVDDSPEEIRAKIKKAYCPAGVVEGNPIMEIAKYFLEYPLTIKGPEKFGGDLTVNSYEELESLFKNKELHPMRLKNAVAEELIKILEPIRKRL | 2.45 | 2.08 | 95.47 | 2.87 | 1.78 | 95.35 | striking decrease |  | F at TAG position (TAG codons; ELP(10TAG)-GFPMS, No nsAA): 55.35%; Y at TAG position (TAG codons; ELP(10TAG)-GFPMS, No nsAA): 50.15%; pAcF (Y) (TAG codons; ELP(10TAG)-GFPMS, No nsAA): −5.50%; F at TAG position (TAG codons; [3]): 3.74%; Y at TAG position (TAG codons; [3]): 2.19%; pAcF (TAG codons; [3]): 94.06%; F at TAG position (TAG codons; [4]): 3.25%; Y at TAG position (TAG codons; [4]): 2.17%; pAcF (TAG codons; [4]): 94.58%
4 | pAcFRS: progenitor M. jannaschii based p-acetyl-L-phenylalanine AARS, SEQ ID NO:1 (Young, et al., 2010) (protein, listed as Methanocaldococcus jannaschii) MDEFEMIKRNTSEIISEEELREVLKKDEKSALIGFEPSGKIHLGHYLQIKKMIDLQNAGFDIIILLADLHAYLNQKGELDEIRKIGDYNKKVFEAMGLKAKYVYGSEFQLDKDYTLNVYRLALKTTLKRARRSMELIAREDENPKVAEVIYPIMQVNGCHYRGVDVAVGGMEQRKIHMLARELLPKKVVCIHNPVLTGLDGEGKMSSSKGNFIAVDDSPEEIRAKIKKAYCPAGVVEGNPIMEIAKYFLEYPLTIKRPEKFGGDLTVNSYEELESLFKNKELHPMRLKNAVAEELIKILEPIRKRL | 0.36 | 1.37 | 98.26 | 0.55 | 1.14 | 98.31 |  |  | 
5 | pAzFRS.1.t1: pAcFRS variant D158V, I159M, L162D, A167Y, R257G, SEQ ID NO: 11 (protein) MDEFEMIKRNTSEIISEEELREVLKKDEKSALIGFEPSGKIHLGHYLQIKKMIDLQNAGFDIIILLADLHAYLNQKGELDEIRKIGDYNKKVFEAMGLKAKYVYGSEFQLDKDYTLNVYRLALKTTLKRARRSMELIAREDENPKVAEVIYPIMQVNVMHYDGVDVYVGGMEQRKIHMLARELLPKKVVCIHNPVLTGLDGEGKMSSSKGNFIAVDDSPEEIRAKIKKAYCPAGVVEGNPIMMEIAKYFLEYPLTIKGPEKFGGDLTVNSYEELESLFKNKELHPMRLKNAVAEELIKILEPIRKRL |  |  |  |  |  |  |  | maintains stringent specificity for pAzF | F at TAG position (TAG codons; [5]): 3.34%; Y at TAG position (TAG codons; [5]): 0.13%
